B1: 201805_NiV_P1_A6 (antibody, V domains shown)
VH: LCLLTSSRSGLVRPGASVKLSCKASGYSFTSYWMNWVKQRPGHGLEWIGMIHPSDSETRLNQRFKDKATLTVDKSSSTAYMQLSSPTSEDSAVYYCAREDFYAMDYWGQGTSVTFSA
VL: DIVMSQSPSSLAVSVGEKITMSCKSSQSLLYSSNKKKYLAWYQQKPGQSPKLLIYWASTRESGVPDRFTGSGSGTDFTLTISSVKAEDLAVYYCQQYYSYPYTFGGGPSNKR
B2: 201805_NiV_P2_D4 (antibody, V domains shown)
VH: EVQLQQSGAELVKPGASVKMSCKASGYTFTDYSIHWVKQKSGQGLEWIGWFYPGSGSIKNSDKVKDEAILTADKSSSTVYLELSSLTSEDSAVYFCARHGGGYDYGRAWFVYWGQGTLVTLEQ
VL: FTQMTQSPKFLLVSAGDRVTITCKASQSVSNDVAWYQQKPGQSPKLLIYYASNRYTGVPDRFTGSGYGTDFTFTISTVQAEDLAVYFCQQDYGSPYTFGGGTKLKN
B3: 201805_NiV_P1_H5 (antibody, V domains shown)
VH: EFQLQQSGPEVVKPGASVRISCKTSGYSFTDYNMNWVRQNNGRSLEWIGVINPNYGTFTYNQKFRGKATLTVDQSSSTAYMQLNSLTSADSAVYFCARAPDYYGINFYFDYWGQGTTLTVSA
VL: DVVMTQTPLSLPVSLGDQASISCRSSQSLVHSNGDTYLHWYLQKPGQSPKLLIYKVSNRFSGVPDRFSGSGSGTDFTLKISRVEAEDLGVYFCSQSTHVPPWTFGGGTKLEIK
B4: 201805_NiV_PL4_F4 (antibody, V domains shown)
VH: EFQLQQSGPEVVKPGASVKISCKTSGYSFTDYNMNWVKQSNGKSLEWIGVINPNYGTTTYNQKFRGKATLTVDQSSSTAYMQLNSLTSEDSAVYYCARAPDYYGINFYFDYWGQGTTLTVSA
VL: DVVMTQSPLSLPVSLGDQASISCRSSQSLVHSNGDTYLHWYLQKPGQSPKLLIYKVSNRFSGVPDRFSGSGSGTDFTLKISRVEAEDLGVYFCSQSTHVPPWTFGGGTKLEIK
B5: 201805_NiV_P1_G1 (antibody, V domains shown)
VH: QVQLQQSGAELAKPGASVKLSCKATGYTFTGSWIEWVKLRPGHGLEWFGEIFPGTGSVKHNEKFRGKAIITAETSSNTAYMKLSSLTTEDSAIYFCSRSNTNYEFFDVWGTGTTVTVSS
VL: EILLTQSPAIISASPGERVTFTCSASSGVNYMNWYQQKPGSSPKIWIYGVSNLASGVPARFSGSGSGTSFSFTITNLEAEDVATYYCQQRSTFPLTFGAGTKLEIK
B6: 201805_NiV_PL3_G2 (antibody, V domains shown)
VH: QIQLVQSGPELKKPGETVKISCTTSGFIFRNYGVNWVKRAPGKGLKWMGWIDAYTGEPAYADDFKGRFAFSLEMSANTAYLQITNLKNEDMATYFCARQGWGEAMDYWGQGTSVTVSS
VL: DVLMTQSPLSLPVSSGDQASISCRSSQTFVHSNGNTYLEWYLQKPGQSPKLLIYKVSNRFSGVPDRFIGSGSGTDFTLKISRVEADDLGVYYCFQGSHVPWAFGGGTKLEIK
B7: 201805_NiV_PL3_G11 (antibody, V domains shown)
VH: QVQLQQSGAELVKPGASVKLSCKASGYIFTNYDINWVRQRPEQGLEWIGWIFPGDVSTNYNEKFKGKATLTTDKSSSTAYMQLSRLTSEDSAVYFCARRSFQAMDYWGQGTSVTVSA
VL: DVLMTQTPLSLPVSLGDQASISCRSSQSIVHSNGNTYLEWYLQKPGQSPKLLIYKVSNRFSGVPDRFSGSGSGTDFTLKISRVEAEDLGVYYCFQGSHVPWTFGGGTKLEIK
B8: 201805_NiV_PL3_H6 (antibody, V domains shown)
VH: EVQLEESGGGLVKPGGSLKLSCTASGFAFSTYDMSWVRQTPEKRLEWVAYISSGGGSTYYPDSVKGRFTISRDNARNTLYLQMSSLKSDDTAMYYCVRDDGYYGGAWFAYWGQGTLVTVSA
VL: DIQMTQTTSSLSASLGDRVTISCRASQDIRNYLNWYQQKPDGTVKLLIYYTSRFHSGVPSRFSGSGSGTDYSLTINNLEQEDITTYFCQQGYILPWTFGGGTKLEIK
B9: 201805_NiV_PL4_D8 (antibody, V domains shown)
VH: EVQLQQSGPELVKPGASVKISCQASGYTFTDSNMNWVRQTHGKSLEWIGDVNPNNGGTSYNQRFKGKATLTVDKSSSTAYMEFRSLTSEDSAVYFCSRRALITTVVADYYGLDYWGQGTSVTVSA
VL: SIVMTQSPKFLLVSAGDRVTMTCKASQSVNSDVVWFQQKPGQSPKLLIYYASIRYTGVPDRFTGSGYGTDFTFTISPVQAEDLAVYFCQQDYSSPYTFGGGTKLEIK
B10: 201805_NiV_PL3_E1 (antibody, V domains shown)
VH: RFRLQQSGAELVKPGASVKLSCRASGYIFTSYWMHWVKQRPGQGLEWIGMIHPNSGSPNYNEKFKSKATLTVDNSSSTAYMQLSSLTSEDSAVYYCARTLLGQGAWFAYWGQGTLVTLAA
VL: YIQMTLSPATLSVTPGDRVSLSCRASQSISDFLHWYQQKSHESPRLLIKYASQSISGIPSRFSGSGSGSDFTLSINSVEPEDVGVYYCQNGHSFPYTFGGGTKLKT
B11: 201805_NiV_PL4_E11 (antibody, V domains shown)
VH: QVQLQQSGAELVKPGASVKLSCKASGYTFTNYDINWVRQRPEQGLEWIGWIFPGDGTTSYNEKFKDKATLTTDKSSSTAYMQLSRLTSEDSTVYFCARLGWGGAMDYWGQGTSVTVSA
VL: YTLMTQSPLSLPVSLGDQASISCRSSQSIVHSNGNTYLQWYLQKPGQSPKLLIYKVSNRFSGVPDRFSGSGSGTDFTLKISRVEAEDLGVYYCFQGSHVPYTFGGGPSNKR
B12: 201805_NiV_P2_F7 (antibody, V domains shown)
VH: QVQLQQSGAELVKPGASVKMSCKASGYTFTNYWIHWVKQRPGQGLEWIGEIDPSNGNSDHNQDFKVKATLTVDTFSSTAYMQLNSLTSEDSAVYYCARSRYYFDYWGQGTTLTVSA
VL: QIVLPQSPAIMSASPGEKVTLTCSARSSVSSGYLYWYQQKPGSSPKLWIYSTSNLASGVPTRFSGSGSGTSYSLTISSMEAEDAASYFCHQWSSYPPTFGGGTKLEIK
B13: 201805_NiV_PL3_H3 (antibody, V domains shown)
V domain 1: EVQLEESGGGLVPGGSLKLSCAASGFTFISYAMSWIRQTPEKRLEWVATITSGGSYTYYPDSVMGRFTISRDNAKNTLHLQMSSLRSEDTAIYYCARGGYGSISPYYFDYWGQGTTLTSSA
V domain 2: DIQMTQSSSSFSVSLGDRVTITCKAGEDIYNRLAWYQQKPGNAPRLLISGAISLETGVPSRFSGSGSGKDYTLSITSLQTEDVATYYCQQYWTNPWTFGGGTKLKSN
B14: 201805_NiV_PL3_H11 (antibody, V domains shown)
VH: EVQLQQSGPELVKPGTSVKISCKASDYSFTGYFMNWVKQSHGKSLEWIGRINPYNGDTFYNQKFKGKATLTVDKSSSTAHMELLSLTSEDSAVYYCAAFDVYYPAWFAYWGQGTTVTVSS
VL: DIQMTQSSSSFSVSLGDRVTFTCKASEDIYNRLAWYQQKPGNAPRLLISGATSLETGVPSRFSGSGSGKDYTLTITSLQTEDVATYYCQQYWSIPWTFGGGTKLEIK
B15: 201805_NiV_PL3_A4 (antibody, V domains shown)
VH: QVQLQQSGTELVKPGASVKLSCKASGYTFTSYWMHWVKQRPGQGLEWIGNINPSNGYTNNNEKFKSKATLTVDKSSSTAYMQLSSLTSEDSAVYYCARGGIYYYGSSLYYYTMDYWGQGTSVTVSS
VL: DIQMTQSSSSFSVSLGDRVTITCKASEDIYNRLAWYQQKPGNAPRLLISDATSLETGVPSRFSGSGSGKDYTLSITSLQTEDVATYYCHQYWSTPWTFGGGTKLEIK
B16: 201805_NiV_PL3_D4 (antibody, V domains shown)
VH: EVQLQQSGPELVKPGASVKMSCKASGYTFTSNVMHWVKQKPGQGLEWIGYINPYNDGTRYNEKFKGKATLTSDKSSSTAYMELSSLTSEDSAVYYCARRFYRGAMDYWGQGTSVTVSA
VL: NIVLHQSPASLAVSLGQRATISCRASESVDTYDNSFMHWYQQKPGQPPKLLIYLASKLESGVPARFSGSGSRTDFTLTIDPVEADDAATYYCQQNYEDPYTFGGGTKLEIK
B17: 201805_NiV_PL4_D5 (antibody, V domains shown)
VH: QIQLVQSGPELKKPGETVKISCKASGFTFTNYGINWVKQAPGKGLKWMGWTDTFTGEPTYADDFKGRFAFSLETSASTAYLQINNLKNEDMATYFCARQGWGEAMDYWGQGTSVTVSA
VL: DVLDEQFHFLPVSLGDQASISCRSSQSIVHSNGNTYLEWYLQKPGQSPKLLIYKVSNRFSGVPDRFSGSGSGTDFTLKISRVEAEDLGVYYCFQGSHVPWTFGGGTKLEIK
B18: 201805_NiV_PL4_C5 (antibody, V domains shown)
VH: EVQLQQSGPELVKPGASMKISCKASGYSFTGYTMNWVKQSHGKNLEWIGLINPYIGGTSYNQKFKGKATLTVDKSSSTAYMELLSLTSEDSAVYYCARLLGREGYYFDYWGQGTTLTSLS
VL: DIQMTQTTSSLSASLGDRVTISCRASQDISNYLNWYQQKPDGTVKLLIYYTSRLHSGVPSRFSGSGSGTDYSLTISNLEQEDIATYFCQQGTTLPFTFGSGTKWKN
B19: 201805_NiV_PL4_C7 (antibody, V domains shown)
VH: FEESGGLVQPGGSMKISCVASGFTFSNYWMNWVRQSPEKGLEWIAQIRLKSDNYATHYAESVKGRFTISRDDSKSSVYLQMNNLRAEDSGIYYCTGILDYWGQGTSVTVSQ
VL: YIQMTQSPSSMSVSLGDTVSITCHASQGISSNIGWLQQKPGKSFKVLIYHGTNLEDGVPSRFSGSGSGADYSLTISSLESEDFADYYCVQYAQFPYTFGGGPNDKT
B20: 201805_NiV_PL3_C3 (antibody, V domains shown)
V domain 1: RFKLQQSGPELVKPGASMKISCKASGYSFTGYTMNWVKQSHGKNLEWIGLINPYIGGTSYNQKFKGKATLTVDKSSSTAYMELLSLTSEDSAVYYCARGGVYYGSNYDFDYWGQGTTLTSLS
V domain 2: DIQMTQTTSSLSASLGDRVTISCSASQGISNYLNWYQQKPDGTVKLLIYYTSSLHSGVPSRFSGSGSGTDYSLTISNLEPEDIATYYCQQYSKLPRTFGGGTKLKSN
B21: 201805_NiV_PL4_E1 (antibody, V domains shown)
VH: EVQLEESGGGLVPGGSLKLSCAASGFTFSDYYMYWVRQTPEKRLEWVATISDGGSYTYYPDSVKGRFTISRDNAKNNLYLQMSSLKSEDTAMYYCAREKPDRGHYYAMDYWGQGTSVTVLQ
VL: IQMTQSSSSFSVSLGDRVTITCKASEDIYNRLAWYQQKPGNAPRLLISGATSLETGVPSRFSGSGSGKDYTLSITSLQTEDVATYYCQQYWSTPYTFGGGTKLKN

Legend:
[1] = biological target: postfusion Nipah virus fusion (F) glycoprotein, construct NiVF_postfusion (Nipah virus, Malaysian strain, stabilised)
[2] = biological target: prefusion-stabilized Nipah virus fusion (F) glycoprotein, construct NiVF_prefusion (Nipah virus, Malaysian strain, stabilised)
[3] = biological target: prefusion-stabilized NiV F (NiVop08) (Nipah virus, Malaysian strain, stabilised)

Row | Binder | binding result [1] | binding result [2] | binding result [3]
1 | B1 | binds | binds | 
2 | B2 |  | binds | 
3 | B3 |  |  | binds
4 | B4 |  |  | binds
5 | B5 | binds | binds | 
6 | B6 | binds | binds | 
7 | B7 | binds | binds | 
8 | B8 | binds | binds | 
9 | B9 |  |  | binds
10 | B10 | binds | binds | 
11 | B11 | binds | binds | 
12 | B12 | binds | binds | 
13 | B13 | binds | binds | 
14 | B14 |  |  | binds
15 | B15 |  | binds | 
16 | B16 |  |  | binds
17 | B17 | binds | binds | 
18 | B18 |  |  | binds
19 | B19 |  | binds | 
20 | B20 |  |  | binds
21 | B21 |  | binds | 

Source: publication PMC10021056 (Nature Communications, 2023)
